Data from patent publication US20260199522.

Target: purified C3b (Complement Technology, Inc. #A114), P01024
Sequence (P01024 whole entry, looked up): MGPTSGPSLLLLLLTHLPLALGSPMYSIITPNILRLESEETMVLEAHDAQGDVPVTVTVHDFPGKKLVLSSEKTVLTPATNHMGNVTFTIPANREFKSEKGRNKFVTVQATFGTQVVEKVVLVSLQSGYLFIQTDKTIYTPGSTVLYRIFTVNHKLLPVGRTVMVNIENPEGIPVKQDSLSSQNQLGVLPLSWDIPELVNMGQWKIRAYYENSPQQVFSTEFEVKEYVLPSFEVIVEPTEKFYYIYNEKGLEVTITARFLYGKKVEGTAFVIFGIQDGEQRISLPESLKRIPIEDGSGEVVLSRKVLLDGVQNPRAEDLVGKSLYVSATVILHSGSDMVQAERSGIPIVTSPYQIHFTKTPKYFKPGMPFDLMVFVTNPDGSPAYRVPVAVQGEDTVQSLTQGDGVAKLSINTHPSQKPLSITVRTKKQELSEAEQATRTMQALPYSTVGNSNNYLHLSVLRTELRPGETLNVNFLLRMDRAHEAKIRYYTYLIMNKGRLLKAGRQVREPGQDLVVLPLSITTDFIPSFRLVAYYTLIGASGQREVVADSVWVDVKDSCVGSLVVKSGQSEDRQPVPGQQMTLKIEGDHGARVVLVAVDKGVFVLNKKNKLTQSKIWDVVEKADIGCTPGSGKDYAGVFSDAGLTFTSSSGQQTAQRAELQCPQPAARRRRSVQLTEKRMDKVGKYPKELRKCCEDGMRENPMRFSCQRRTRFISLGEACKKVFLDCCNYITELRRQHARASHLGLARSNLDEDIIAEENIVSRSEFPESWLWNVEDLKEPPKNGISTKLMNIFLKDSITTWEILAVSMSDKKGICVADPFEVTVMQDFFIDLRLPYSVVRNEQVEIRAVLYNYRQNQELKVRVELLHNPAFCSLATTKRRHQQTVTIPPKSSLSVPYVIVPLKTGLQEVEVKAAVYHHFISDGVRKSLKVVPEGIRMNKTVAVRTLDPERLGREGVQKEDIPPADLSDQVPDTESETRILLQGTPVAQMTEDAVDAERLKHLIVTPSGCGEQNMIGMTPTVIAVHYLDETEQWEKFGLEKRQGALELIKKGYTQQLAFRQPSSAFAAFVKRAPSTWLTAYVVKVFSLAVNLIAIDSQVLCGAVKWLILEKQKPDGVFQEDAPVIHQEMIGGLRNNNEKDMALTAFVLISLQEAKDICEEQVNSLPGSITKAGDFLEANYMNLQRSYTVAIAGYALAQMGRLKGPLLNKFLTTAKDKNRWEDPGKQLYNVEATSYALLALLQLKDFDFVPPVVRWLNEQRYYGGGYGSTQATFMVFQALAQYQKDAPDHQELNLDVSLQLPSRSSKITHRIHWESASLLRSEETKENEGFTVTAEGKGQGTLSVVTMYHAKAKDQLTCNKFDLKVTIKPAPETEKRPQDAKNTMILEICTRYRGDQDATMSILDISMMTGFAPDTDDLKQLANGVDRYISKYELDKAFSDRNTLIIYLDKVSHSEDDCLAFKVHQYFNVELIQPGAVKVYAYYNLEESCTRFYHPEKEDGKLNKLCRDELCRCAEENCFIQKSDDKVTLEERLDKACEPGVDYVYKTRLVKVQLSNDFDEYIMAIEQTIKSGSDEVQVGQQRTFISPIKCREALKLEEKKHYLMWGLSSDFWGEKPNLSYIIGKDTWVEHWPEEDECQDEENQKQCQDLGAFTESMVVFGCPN

B1: human Complement Factor I (hCFI) expressed from the AAV-CFI-1.0 vector, secreted into cell media of transduced rabbit retinal explants (protein)
chain: KVTYTSQEDLVEKKCLAKKYTHLSCDKVFCQPWQRCIEGTCVCKLPYQCPKNGTAVCATNRRSFPTYCQQKSLECLHPGTKFLNNGTCTAEGKFSVSLKHGNTDSEGIVEVKLVDQDKTMFICKSSWSMREANVACLDLGFQQGADTQRRFKLSDLSINSTECLHVHCRGLETSLAECTFTKRRTMGYQDFADVVCYTQKADSPMDDFFQCVNGKYISQMKACDGINDCGDQSDELCCKACQGKGFHCKSGVCIPSQYQCNGEVDCITGEDEVGCAGFASVTQEETEILTADMDAERRRIKSLLPKLSCGVKNRMHIRRKRIVGGKRAQLGDLPWQVAIKDASGITCGGIYIGGCWILTAAHCLRASKTHRYQIWTTVVDWIHPDLKRIVIEYVDRIIFHENYNAGTYQNDIALIEMKKDGNKKDCELPRSIPACVPWSPYLFQPNDTCIVSGWGREKDNERVFSLQWGEVKLISNCSKFYGNRFYEKEMECAGTYDGSIDACKGDSGGPLVCMDANNVTYVWGVVSWGENCGKPEFPGVYTKVANYFDWISYHVGRPFISQYNV
C3b cleavage assay (Western blot stained with anti-C3 antibody; appearance of iC3b 68 kDa and 43 kDa bands), in the presence of purified CFH: The iC3b 43 kDa polypeptide is present in all lanes containing cell media from rabbit explants transduced with AAV-CFI-1.0 package into either AAV2.7m8 or AAV2.5T-LSV1 capsid serotypes
